The data set deals with the molecule itself. The data set is described as follows: SEC-SAXS.

B1: gated spinach aquaporin SoPIP2;1 (natural protein)
chain: MSKEVSEEAQAHQHGKDYVDPPPAPFFDLGELKLWSFWRAAIAEFIATLLFLYITVATVIGHSKETVVCGSVGLLGIAWAFGGMIFVLVYCTAGISGGHINPAVTFGLFLARKVSLLRALVYMIAQCLGAICGVGLVKAFMKGPYNQFGGGANSVALGYNKGTALGAEIIGTFVLVYTVFSATDPKRSARDSHVPILAPLPIGFAVFMVHLATIPITGTGINPARSFGAAVIFNSNKVWDDQWIFWVGPFIGAAVAAAYHQYVLRAAAIKALGSFRSNPTN
In the case of B1, the binding result is “binds”.

The record behind these values is publication doi:10.1101/2022.10.28.512841 (bioRxiv, 2022).
